For the assay, the target named is SIRPγ on Jurkat cells (human) (UniProt Q9P1W8). In words: flow cytometry on Jurkat cells (endogenous SIRPγ), PE-conjugated antibody, fold over isotype (MFI).
Chain of SIRPγ on Jurkat cells (human) (Q9P1W8 29-387): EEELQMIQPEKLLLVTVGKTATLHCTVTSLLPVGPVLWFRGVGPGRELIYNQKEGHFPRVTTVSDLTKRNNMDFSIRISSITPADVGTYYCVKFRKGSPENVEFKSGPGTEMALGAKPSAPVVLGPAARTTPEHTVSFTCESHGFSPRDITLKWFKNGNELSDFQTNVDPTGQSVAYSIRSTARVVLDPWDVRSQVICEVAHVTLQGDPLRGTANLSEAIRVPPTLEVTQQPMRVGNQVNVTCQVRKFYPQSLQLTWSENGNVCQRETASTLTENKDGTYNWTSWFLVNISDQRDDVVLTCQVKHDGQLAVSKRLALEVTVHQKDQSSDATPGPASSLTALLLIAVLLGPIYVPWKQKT

On to PE SIRPy LSB2.20 (antibody), for which the 50% effective concentration (EC50 (read off the curve)) (usually the concentration that produces a half-maximal response) came out at 20 nM.

Values taken from patent US20250026827A1.
